Experimental data taken from article PMC6261512 (Protein expression and purification, 2018).

Molecular target: the molecule itself
Test: SEC

B1: MBP-5-HT3A-ICD chimera (maltose-binding protein and the intracellular domain of the mouse serotonin type 3A receptor) (domain or fragment, UniProt P23979 327-466, looked up)
chain: ETIFIVRLVHKQDLQRPVPDWLRHLVLDRIAWILCLGEQPMAHRPPATFQANKTDDCSGSDLLPAMGNHCSHVGGPQDLEKTPRGRGSPLPPPREASLAVRGLLQELSSIRHFLEKRDEMREVARDWLRVGYVLDRLLFR
  stoichiometry N: 5
